Data from article PMC3961330.

What was measured:
[1] = tested on: PPARalpha (rat liver nuclear extract);RXRalpha (rat liver nuclear extract) (rat;rat); test: EMSA; conditions: OEA-treated rats; 10 mM HEPES pH 7.9, 150 mM KCl, 1 mM DTT, 0.2 ug/uL poly(dI-C), 5% glycerol; 15 min on ice then 15 min with probe at room temperature; 8% native PAGE, 0.5x TBE
[2] = tested on: PPARalpha (rat liver nuclear extract);RXRalpha (rat liver nuclear extract) (rat;rat); test: EMSA with anti-PPARalpha supershift; conditions: OEA-treated rats; anti-PPARalpha antibody; 10 mM HEPES pH 7.9, 150 mM KCl, 1 mM DTT, 0.2 ug/uL poly(dI-C), 5% glycerol; 15 min on ice then 15 min with probe at room temperature; 8% native PAGE, 0.5x TBE

ACOX-PPRE
binding signal (fold vs vehicle) [1]: 2
binding signal (fold vs vehicle (supershifted complex)) [2]: > 3
